Source: article PMC7577971, “Antibody-mediated disruption of the SARS-CoV-2 spike glycoprotein” (Nature Communications, 2020)

Biological target: T1, stabilised, trimeric ectodomain of the SARS-CoV-2 spike glycoprotein (FUR 2P) (SARS-CoV-2, Wuhan-Hu-1 (YP_009724390.1), R682S | R685S | K986P | V987P)
T1 construct: also called S trimer; trimeric spike
Assay: BLI
Settings: both partners purified

B1: CR3022 Fab (tag cleaved with TEV, as used in binding assays) (Fab, V domains shown)
VH: QMQLVQSGTEVKKPGESLKISCKGSGYGFITYWIGWVRQMPGKGLEWMGIIYPGDSETRYSPSFQGQVTISADKSINTAYLQWSSLKASDTAIYYCAGGSGISTPMDVWGQGTTVTVAS
VL: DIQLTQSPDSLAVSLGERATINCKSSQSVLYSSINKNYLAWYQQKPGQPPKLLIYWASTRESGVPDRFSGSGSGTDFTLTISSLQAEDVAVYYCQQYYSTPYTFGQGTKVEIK
Work on B1 yielded a Kd of 80 nM.
